Experimental data from the Human Domainome abundance scans (Beltran et al. 2025).

B1: Apoptosis-associated speck-like protein containing a CARD, residues 114 to 194; numbered along this chain, Q9ULZ3 (parent)
chain: FIDQHRAALIARVTNVEWLLDALYGKVLTDEQYQAVRAEPTNPSKMRKLFSFTPAWNWTCKDLLLQALRESQSYLVEDLER

Variants of: B1
Assay: abundance fitness (aPCA) (normalised: wild type 0, dead -1); higher = more abundant; growth selection in yeast, the domain comes from the species named
Conditions: Homo sapiens

Abundance fitness, by site and new letter:
K45: L -0.918, R -0.317, W -0.852, M -0.34, D -1, G -0.768, C -0.887, V -0.609, T -0.764, H -1.06, Q -0.695, S -0.273, P -0.803, A -0.615, E -0.846
R37: H -0.252, P -0.792, D -0.219, Q -0.008, G -0.479, I 0.063, T -0.182, E -0.304, S -0.104, V -0.148, C -0.208, M 0.136, N -0.1, L 0.067, Y -0.118, A 0.039, W -0.373, K -0.111, F -0.509
V36: R -0.833, T -1.01, M -0.837, H -0.819, Y -0.973, A -0.46, F -0.548, I -0.143, E -0.801, K -0.325, W -0.74, C 0.04, D -0.79, L -0.846, P -0.89, S -0.334, G -0.691, N -0.823
R47: Q -0.051, S -0.197, A 0.013, V -0.155, N -0.214, Y -0.872, I -0.254, F -0.786, E 0.037, M -0.166, T -0.04, G -0.62, C -0.139, W -0.497, K -0.008, D -0.517, L -0.319, H -0.452, P -0.814
T41: V -0.707, M -0.701, S -0.199, L -0.834, R -0.907, E -0.782, F -1.2, N 0.045, P -0.845, A -0.52, Y -0.519, W -0.653, C -0.28, G -0.484, K -0.755, Q -0.517
P40: A -0.256, C -0.434, E -0.257, R -0.167, N -0.419, T -0.202, F -0.912, I -0.339, L -0.587, K -0.123, G -0.425, M -0.896, D -0.38, Y -0.633, W -0.832, S -0.291
N42: E -0.337, I 0.082, L -0.337, S -0.445, K -0.74, C -0.616, P -0.306, T -0.336, Y -0.896, M -0.48, H -0.624, F -0.372, A -0.188, G -0.331, W -0.582, D -0.221, Q -0.488, V -0.596, R -0.562
M46: E -0.831, P -0.542, V -0.353, R -0.653, D -1.03, Q -0.717, W -0.696, G -0.949, C -1.02, F -0.807, Y -0.707, L -0.298, A -0.679, T -0.77, I -0.778, S -0.933
Y33: C 0.121, Q -0.546, V 0.136, M -0.189, A -0.1, L -0.204, G -0.69, P -0.654, E -0.59, F -0.277, K -0.342, T -0.188, I -0.097, S -0.376, W -0.524
S44: V -0.947, N -0.511, C -0.268, T -0.097, F -0.842, R -0.064, G -0.063, A 0.116, W -0.531, M 0.024, D 0.091, I -0.398, L 0.031, P -0.868, Y -1.01, Q 0.061, K -0.265
Q34: P -0.817, L -0.295, F -0.433, Y -0.332, R -0.003, G -0.599, T -0.285, I -0.81, M -0.329, H 0.05, S -0.388, E -0.052, W -0.123, C -0.3, N -0.004, V -0.417, K -0.143, D -0.185
A38: I -0.413, C -0.297, Y -1.08, Q -0.179, P -0.935, M -0.11, F -0.312, L -0.176, D -0.258, E -0.15, V -0.419, N -0.308, W -0.861, S -0.056, H -0.226, K -0.088, T -0.552
T29: A -0.585, I -0.825, S -0.208, N -0.338, D -0.626
L28: V -0.734, Y -0.783, W -0.798
K48: V -0.469, W -0.35, C -0.667, F -0.585, T -0.635, N -0.802, Y -1.05, E -0.963, D -0.745, S -0.891, H -0.655, M -0.221, A -0.745, L -0.347, I -0.779, R -0.185, Q -0.674, G -0.877, P -0.71
Q32: L -0.95, T -0.507, D -0.842, E -0.276, V -0.862, I -0.772, A -0.911, Y -0.891, N -0.873, W -0.873, R -0.917, G -0.725, S -0.598, F -0.829, P -0.941, C -0.68
P43: K -0.114, S -0.061, W -0.313, Q 0.065, F -0.395, A -0.045, N -0.241, E 0.07, C -0.147, R -0.091, I -0.566, H -0.221, L -0.263, T 0.04, Y -0.593, G -0.27, M -0.138, V -0.096
L49: A -0.93
A35: S -0.08, K -0.224, R -0.491, I -0.862, L -0.218, G -0.472, V -0.365, P -0.664, Q -0.011, T -0.348, W -0.957, E -0.064, F -0.84, N -0.851
E39: H -0.79, V -0.815, K -0.549, S -0.842, W -0.946, C -0.088, P -0.914, Q -0.293, R -0.692, M -0.129, T -0.789, N -0.26, Y -0.49, A -0.474, L -0.303, F -0.714, I -0.909, G -0.669
D30: G -0.545, A -0.165, N -0.325, Q -0.199, S -0.249, I -0.309, K -0.416, W -0.26, E -0.013, T -0.193, V -0.339, R -0.254, H 0.094, Y -0.293, P -0.213, L -0.097, C -0.539
E31: H -0.823, F -0.82, I -0.581, P -0.735, K -0.65, G -0.469, Q -0.38, C -0.832, D -0.161, A -0.252, Y -0.477, S -0.263, R -0.238, W -0.463, M -0.693, T -0.465, L -0.461, N -0.327
